Results published in patent US20200407467.

How the values were obtained:
[1] = system: T7-SEPARATE PreScission-cleavable clone, multivalent display (mid-copy vector)
[2] = system: uncleavable negative control clone (randomly selected 90-aa human peptide from the proteome library)
[3] = system: T7-SEPARATE PreScission-cleavable clone, monovalent display (T7Select1-2b)
[4] = system: Fibrinogen (peptides of the human library)

Substance	phage particles recaptured, percent of pre-immobilized phage particles [1]	phage particles released, percent of pre-immobilized phage particles [1]	signal-to-noise ratio (highest PreScission concentration versus mock digest) [1]	phage particles recaptured, percent of immobilized phage particles [2]	phage particles recaptured, percent of pre-immobilized phage particles [3]	phage particles released, percent of pre-immobilized phage particles [3]	recapture of the cleavable peptide spiked 1 to 100 into the human library, fold increase versus mock digest [3]	signal-to-noise ratio (highest PreScission concentration versus mock digest) [3]	enrichment in SEPARATE (human library digest) [4]
PreScission enzyme (human rhinovirus 3C protease, GE Life Sciences)	up to 24% and 22.5%, respectively	up to 24% and 22.5%, respectively	11.9	~1% of the immobilized phage particles were similarly recaptured, whether the PreScission enzyme was included in the digest reaction or not	up to 53% and 43%, respectively	up to 53%	26-fold increase	23.4	–
Thrombin	–	–	–	–	–	–	–	–	did not score in the assay, and this was true for other canonical enzyme-substrate pairs such as Thrombin/Fibrinogen
